According to the supplement of paper PMC7877785:
± gives the uncertainty stated by the source.

Assay: self-splicing fitness, log relative to wild type (ln ratio); higher = more splicing; Tetrahymena group I intron in knt gene, E. coli kanamycin selection, DiMSum; sequences stand for … in CUCUCU…GGAGGGAAAAGUUAUCAGGCAUGCACCUGGUAGCUAGUCUUUAAACCAAUAGAUUGCAUCGGUUUAAAAGGCAAGACCGUCAAAUUGCGGGAAAGGGGUCAACAGCCGUUCAGUACCAAGUCUCAGGGGAAACUUUGAGAUGGCCUUGCAAAGGGUAUGGUAAUAAGCUGACGGACAUGGUCCUAACCACGCAGCCAAGUCCUAAGUCAACAGAUCUUCUGUUGAUAUGGAUGCAGUUCACAGACUAAAUGUCGGUCGGGGAAGAUGUAUUCUUCUCAUAAGAUAUAGUCGGACCUCUCCUUAAUGGGAGCUAGCGGAUGAAGUGAUGCAACACUGGAGCCGCUGGGAACUAAUUUGUAUGCGAAAGUAUAUUGAUUAGUUUUGGAGUACUCGUGGUCG
In short: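 DiMSum derived fitness as the error-weighted combination of fold changes across replicates, kanamycin versus no kanamycin, normalised to wild type. E. coli BL21(DE3) held the library, which randomised all eight P1ex-region intron nucleotides within the knt kanamycin-resistance gene on pET-22b(+). Six replicate transformations grew overnight at 37°C or 30°C on LB agar with or without 25 μg/mL kanamycin, also containing 100 μg/mL carbenicillin, 50 μM IPTG and 0.2% rhamnose, and pooled colonies were amplicon-sequenced on an Illumina HiSeq 2500.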

Sequence	self-splicing fitness (ln) (30 °C)	self-splicing fitness (ln) (37 °C)
ACCUAGCAAUAUUACGUUAA	-2.38 ± 0.14	-1.9 ± 0.17
ACCUAGCAAUAUUACGUUGC	-2.21 ± 0.1	-1.56 ± 0.14
ACGAAGCAAUAUUACGAAAA	-3.5 ± 0.43	-2.78 ± 0.43
ACGAAGCAAUAUUACGAGUG	-2.77 ± 0.1	-2.29 ± 0.11
ACGAAGCAAUAUUACGCAAU	-1.6 ± 0.091	-1.42 ± 0.094
ACGAAGCAAUAUUACGCACA	-0.494 ± 0.096	-0.0286 ± 0.098
ACGAAGCAAUAUUACGCAUC	-3.54 ± 0.18	-3.42 ± 0.3
ACGAAGCAAUAUUACGCGAU	-2.21 ± 0.13	-0.777 ± 0.14
ACGAAGCAAUAUUACGCUAG	-1.5 ± 0.084	-0.372 ± 0.11
ACGAAGCAAUAUUACGCUCC	-2.06 ± 0.42	-0.416 ± 0.41
ACGAAGCAAUAUUACGGAGC	-3.94 ± 0.27	-1.29 ± 0.23
ACGAAGCAAUAUUACGGCGG	-0.224 ± 0.089	0.0437 ± 0.13
ACGAAGCAAUAUUACGGGGG	-2.58 ± 0.15	-2.27 ± 0.25
ACGAAGCAAUAUUACGGUAG	-2.36 ± 0.15	-2.22 ± 0.22
ACGAAGCAAUAUUACGGUCG	-0.954 ± 0.066	-0.311 ± 0.082
ACGAAGCAAUAUUACGUCCG	-0.464 ± 0.097	-0.122 ± 0.12
ACGAAGCAAUAUUACGUGUA	-2.15 ± 0.058	-1.24 ± 0.058
ACGAAGCAAUAUUACGUUCA	-1.14 ± 0.05	-0.417 ± 0.057
ACGCAGCAAUAUUACGACAA	-1.61 ± 0.12	-0.427 ± 0.097
ACGCAGCAAUAUUACGACCG	-0.348 ± 0.15	-0.0722 ± 0.19
ACGCAGCAAUAUUACGACCU	0.0699 ± 0.061	0.401 ± 0.073
ACGCAGCAAUAUUACGAGCA	-1.58 ± 0.096	-1.2 ± 0.11
ACGCAGCAAUAUUACGAUAU	-2.42 ± 0.096	-1.02 ± 0.12
ACGCAGCAAUAUUACGAUUU	-1.01 ± 0.081	-0.413 ± 0.1
ACGCAGCAAUAUUACGCAUG	-3.56 ± 0.14	-2.57 ± 0.21

Sequence	self-splicing fitness (ln) (30 °C)	self-splicing fitness (ln) (37 °C)
ACGCAGCAAUAUUACGCCAA	-3.3 ± 0.2	-1.75 ± 0.17
ACGCAGCAAUAUUACGCCGA	-1.23 ± 0.099	-0.977 ± 0.094
ACGCAGCAAUAUUACGCUAA	-1.79 ± 0.08	-0.352 ± 0.081
ACGCAGCAAUAUUACGGACU	-0.613 ± 0.081	0.0817 ± 0.098
ACGCAGCAAUAUUACGGAGG	-3.65 ± 0.15	-1.84 ± 0.12
ACGCAGCAAUAUUACGGCUA	-0.12 ± 0.064	-0.215 ± 0.075
ACGCAGCAAUAUUACGGGAC	-3.2 ± 0.22	-1.84 ± 0.2
ACGCAGCAAUAUUACGGGGG	-3.86 ± 0.2	-2.54 ± 0.19
ACGCAGCAAUAUUACGUAGA	-2.99 ± 0.16	-2.53 ± 0.21
ACGCAGCAAUAUUACGUAUG	-4.32 ± 0.22	-2.54 ± 0.16
ACGCAGCAAUAUUACGUCUG	-2.44 ± 0.14	-2.5 ± 0.28
ACGCAGCAAUAUUACGUGAA	-2.62 ± 0.15	-1.01 ± 0.13
ACGCAGCAAUAUUACGUGCA	-1.58 ± 0.076	-0.0655 ± 0.083
ACGCAGCAAUAUUACGUGUA	-2.93 ± 0.11	-1.6 ± 0.082
ACGCAGCAAUAUUACGUUAU	-3.13 ± 0.12	-2.12 ± 0.15
ACGGAGCAAUAUUACGAGCA	-3.2 ± 0.34	–
ACGGAGCAAUAUUACGAGCG	-2.76 ± 0.28	-1.59 ± 0.2
ACGGAGCAAUAUUACGCACA	-2.08 ± 0.36	-2.46 ± 0.37
ACGGAGCAAUAUUACGCAGC	-3.02 ± 0.3	–
ACGGAGCAAUAUUACGCCCA	-2.81 ± 0.43	-1.92 ± 0.37
ACGGAGCAAUAUUACGCGGG	-2.3 ± 0.18	-0.332 ± 0.15
ACGGAGCAAUAUUACGCUAA	–	0.642 ± 0.24
ACGGAGCAAUAUUACGCUGU	–	-2.56 ± 0.25
ACGGAGCAAUAUUACGGGGC	-3.39 ± 0.35	-3.86 ± 0.46
ACGGAGCAAUAUUACGGUGA	-3.69 ± 0.23	-1.55 ± 0.21

Sequence	self-splicing fitness (ln) (30 °C)	self-splicing fitness (ln) (37 °C)
ACGGAGCAAUAUUACGUAAC	-3.72 ± 0.37	-1.66 ± 0.22
ACGGAGCAAUAUUACGUGCA	–	-1.4 ± 0.22
ACGGAGCAAUAUUACGUGCU	-2.34 ± 0.19	–
ACGGAGCAAUAUUACGUGGA	-3.74 ± 0.37	-2.26 ± 0.24
ACGGAGCAAUAUUACGUUGA	-2.94 ± 0.2	-2.29 ± 0.21
ACGGAGCAAUAUUACGUUGC	–	-3.12 ± 0.4
ACGUAGCAAUAUUACGACCG	-0.218 ± 0.1	0.0549 ± 0.12
ACGUAGCAAUAUUACGAGCC	-3.28 ± 0.35	-2.55 ± 0.44
ACGUAGCAAUAUUACGAGCG	-1.53 ± 0.11	-0.668 ± 0.12
ACGUAGCAAUAUUACGAUGG	-3.99 ± 0.35	-1.52 ± 0.29
ACGUAGCAAUAUUACGCACG	-2.31 ± 0.2	-1.98 ± 0.19
ACGUAGCAAUAUUACGCAUC	-3.3 ± 0.22	-0.518 ± 0.29
ACGUAGCAAUAUUACGCCUA	-0.946 ± 0.1	-0.412 ± 0.099
ACGUAGCAAUAUUACGCCUG	-1.29 ± 0.077	0.00322 ± 0.11
ACGUAGCAAUAUUACGCGCU	-1.89 ± 0.11	-0.586 ± 0.16
ACGUAGCAAUAUUACGCUAA	-1.84 ± 0.21	-0.48 ± 0.13
ACGUAGCAAUAUUACGCUGG	-2.32 ± 0.18	-2.64 ± 0.41
ACGUAGCAAUAUUACGCUUA	-1.49 ± 0.11	-0.764 ± 0.12
ACGUAGCAAUAUUACGGACU	-2.66 ± 0.3	-0.29 ± 0.24
ACGUAGCAAUAUUACGGCUG	-3.21 ± 0.28	-1.83 ± 0.25
ACGUAGCAAUAUUACGGGAU	-2.67 ± 0.16	-1.97 ± 0.16
ACGUAGCAAUAUUACGGGCU	-1.15 ± 0.063	-1.18 ± 0.1
ACGUAGCAAUAUUACGGGUC	-3.56 ± 0.19	-3.42 ± 0.25
ACGUAGCAAUAUUACGGUAA	-1.67 ± 0.2	-1.39 ± 0.14
ACGUAGCAAUAUUACGGUGG	-5.08 ± 0.28	-2.92 ± 0.16

Sequence	self-splicing fitness (ln) (30 °C)	self-splicing fitness (ln) (37 °C)
ACGUAGCAAUAUUACGGUUC	-3.18 ± 0.17	-2.49 ± 0.31
ACGUAGCAAUAUUACGGUUG	-2.6 ± 0.1	-0.902 ± 0.12
ACGUAGCAAUAUUACGGUUU	-2.03 ± 0.096	-0.957 ± 0.11
ACGUAGCAAUAUUACGUAAG	-3.51 ± 0.17	-2.45 ± 0.22
ACGUAGCAAUAUUACGUAAU	-2.35 ± 0.13	-2.34 ± 0.15
ACGUAGCAAUAUUACGUCCU	-1.99 ± 0.13	-0.452 ± 0.13
ACGUAGCAAUAUUACGUCGG	-3.32 ± 0.33	-2.07 ± 0.2
ACGUAGCAAUAUUACGUCGU	-3.52 ± 0.15	-2.59 ± 0.15
ACGUAGCAAUAUUACGUGCA	-2.38 ± 0.17	-0.124 ± 0.096
ACGUAGCAAUAUUACGUUUG	-3.46 ± 0.17	-2.95 ± 0.18
ACUAAGCAAUAUUACGACGG	-0.271 ± 0.074	0.203 ± 0.094
ACUAAGCAAUAUUACGAGUA	-2.35 ± 0.17	-1.78 ± 0.18
ACUAAGCAAUAUUACGAUGA	-0.267 ± 0.068	-0.253 ± 0.076
ACUAAGCAAUAUUACGCAGA	-1.89 ± 0.092	-1.5 ± 0.083
ACUAAGCAAUAUUACGCAGG	-2.02 ± 0.088	-0.927 ± 0.092
ACUAAGCAAUAUUACGCCCU	0.438 ± 0.23	-0.36 ± 0.26
ACUAAGCAAUAUUACGCGGC	-3.74 ± 0.23	-1.85 ± 0.18
ACUAAGCAAUAUUACGCUUG	-3.11 ± 0.21	-2.1 ± 0.19
ACUAAGCAAUAUUACGGCAG	-1.71 ± 0.1	-0.238 ± 0.11
ACUAAGCAAUAUUACGGCCC	-0.668 ± 0.18	-0.484 ± 0.27
ACUAAGCAAUAUUACGGCCG	-0.147 ± 0.087	-0.306 ± 0.12
ACUAAGCAAUAUUACGGCGG	-0.98 ± 0.07	-0.452 ± 0.1
